From the nanobody polyreactivity screen of Harvey et al. (2022)

Assay: yeast display, Sf9 membrane polyspecificity reagent, FACS + sequencing; frameworks hold sequencing errors
In short: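 Synthetic nanobody libraries on Saccharomyces cerevisiae BJ5465 were galactose-induced for 36–48 hours, stained 1 hour at 4 °C with 10% biotinylated, detergent-solubilized Sf9 membrane reagent and enriched on streptavidin microbeads. FACS then separated cells into low and high (top ~1%) gates by anti-HA (expression) and streptavidin (reagent binding) fluorescence. Genes were colony-PCR amplified, MiSeq 2 × 250 sequenced and CDR-length filtered. A clone's polyreactivity label is that of its gate of origin.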

Row | Sequence | polyreactivity (PSR sort gate)
1 | QVQLVESGGGLVQAGGSLRLSCAASGLIFAWYAMGWYRQAPGKERELVAAITGTGSSTYYADSVKGRFTISRDNAKNTVYLQMNSLKPEDTAVYYCNRGYFNSRTPTFDYWGQGTQVTVSS | low polyreactivity
2 | QVHLVESGGGLVQAGGSLRLSCAASGFIFYSNAMGWYRQAPGKERELVAAISSGGGSTRYADSVKGRFTISRDNAKNTVYLQMNSLKPQDTAVYYCAAREGYTKFRSTRYYYWGQGTQVTVSS | high polyreactivity
3 | QVQLVESVGGLVQAGGSLRLSCAASGRTLYPNAMGWYRQAPGKERELVASISWSGVSTYYADSVKGRFTISRDNAKNTVYLQMNSLKPEDTAVYYCNAVGYWSDGLVWYEGDYWGQGTQVTVSS | low polyreactivity
4 | QVQLVESGGGLVQAGCSLRLSCAASGRTFVWYEMGWYRQATGKERELVAAINKRGTSTYYADSVKGRFTISRDNAKNTVYLQMNSLNPEVTAVYYCAVEYIYWFHSRSSYIYDYWGQGTQVTVSS | low polyreactivity
5 | QVQLVESGGGLVQAGGSLRLSCAATGSTFWPYAMGWYRQAPGKERELVAAIRVIGGSTYYADSVKGRFTISRDNAKNTVYLQMNSLKPEDTAVYYCNAYRPGGARFYARYRYDYCGQGTQVTVSS | low polyreactivity
6 | QVQLVESGGGLVQAGGSLGLSCAASGIIFQANAMGWYRQAPGKERELVAGISRGSSTNYADSVKGRFTISRDNEKNTVYLQMNILKPEDTAVYYCASDRGYGRISRNYYWGQGTQVTVSS | low polyreactivity
7 | QVQLVESGGGLVQAGGSLRISCVASARTFRWYAMGWYRQAPGKERELVATITLNGGSTYYADSVKGRFTISRDNAKNNVYLQMNSLKPEDTAVYYCNRGTNVVRRGVYSFGYDYWGQGTQVTVSS | low polyreactivity
8 | QVQLVESGGGLVQAGGRLRLSCAASGSTFEINVMGWYRQAPGKERELFAAITYSGGSTYYADSVKGRFTISRDNEKNTVYLQMNSLKPEDTAVYYWNADYILDAQYDYWGQGTQVTVSS | low polyreactivity
9 | QVQLVESGAGLDQAGCSLRISCAASGRIFWFYTMGWYRQAPWKERELVAAISTSGGSTYYADSVKGRFTISRDNEKNTVYLQMNSLKPDDTAVYYCAAQNGYYPQHDYWGQGTQVTVSS | high polyreactivity
